# According to patent publication US8013137B2, “Modified enteropeptidase protein” (National University Corporation Hokkaido University, priority 2006, dated 2011):
# Where a chain is given by its changes, count along the chain named. Names and notes keep the numbering of the source.
# B1: EP-2: recombinant serine protease domain of Medaka enteropeptidase-2 (AB272105) (protein)
# chain: MKRRLTNLEVLLTVTTSLFAVCCVCLIVVSCIGLKPEGAAEPVQLIGQMVITAGAAFSEELRNSSSHLFKSLAFDVQQLVSDAFGASELRLLYRSFRVLYFRPGSIAVTFDLEFNQQIDLNEVKQQLGEGLQQIEDGALVIDVDSIQITEKPSSTTPEPTSTTGHITTETMPITGHTTPAATPTAASCPPDHSLCWDRSTCVLTDVLCDGVSDCPDASDENSSRCATTCDGQFVLGGPNGTFRSSETETYRNNSNCRWIIRMDGGLSVQVNFHHFETEEYSDVLKLYEGVGPHKQLAAELSGPSPPGTVLLLNNQVTVEFTSDGVNDLSGFRASYVAVNTSSLSNQEKLSCSFDQGFCFWRQLQDSFDTWIRTNVPTFPPLTGPNFDHTFGNSSGFYIVTSLSPGQWLKSFVINSLPLAPSSHPTCLSFWYHMFGEDVYRLRVLLRPSQPELTEVVLFHKEGNFGDNWNYAQITLNLSTESTVVFEAQKEGGNQNDIALDDISLRSEGCGPAPPEPTNVPLPTTAAPIPPDCGGPFDLWEPNSTFTSPNYPQSYGDGAECLWTLHAEKGQNIQLHFLDFDVEATYDVVEVRDGAGLNSTLLAVLSGSDGPTRDLYSTDNQMTVWFYTDSGGFGRGFRANFTSGVNLGSQAPCTNGQFQCQTGDCIHGDRQCDGVADCPDGYDEADCVALQVNGSHRLHFLLLRSLLTVCADTWDSELSDFTCQYLGYRSGEESLQSVLPQDAAFAVVTVSSNGTLETQVRETCSSGEVISLNCSNQPCGQRQVYNHGDQSENSKENNGVPRVVGGVNAEKGAWPWMVSLHWRGRHGCGASLIGRDWLLTAAHCVYGKNTHLQYWSAVLGLHAQSSMNSQEVQIRQVDRIIINKNYNRRTKEADIAMMHLQQPVNFTEWVLPVCLASEGQHFPAGRRCFIAGWGRDAEGGSLPDILQEAEVPLVDQDECQRLLPEYTFTSSMLCAGYPEGGVDSCQGDSGGPLMCLEDARWTLIGVTSFGVGCGRPERPGAYARVSAFASWIAETRRSSFSDLD
# modifications: Oryzias latipes
# B2: Bovine (Neb): bovine EP protease available from NEB (protein)
# chain: IVGGSDSREGAWPWVVALYFDDQQVCGASLVSRDWLVSAAHCVYGRNMEPSKWKAVLGLHMASNLTSPQIETRLIDQIVINPHYNKRRKNNDIAMMHLEMKVNYTDYIQPICLPEENQVFPPGRICSIAGWGALIYQGSTADVLQEADVPLLSNEKCQQQMPEYNITENMVCAGYEAGGVDSCQGDSGGPLMCQENNRWLLAGVTSFGYQCALPNRPGVYARVPRFTEWIQSFLH
# B3: Bovine (Nvg): bovine EP protease available from Novagen (protein)
# chain: B2 chain
# B4: K63R: Medaka EP-1 protease mutant, substitution K63R (protein)
# chain: CGQRQVYNSKENNGVPRVVGGVNAEKGAWPWMVSLHWRGRHGCGASLIGRDWLLTAAHCVYGRNTHLQYWSAVLGLHAQSSMNSQEVQIRQVDRIIINKNYNRRTKEADIAMMHLQQPVNFTEWVLPVCLASEDQHFPAGRRCFIAGWGRDAEGGSLPDILQEAEVPLVDQDECQRLLPEYTFTSSMLCAGYPEGGVDSCQGDSGGPLMCLEDARWTLIGVTSFGVGCGRPERPGAYARVSAFTSWIAETRRSSFSDLD
# B5: T105E: Medaka EP-1 protease mutant, substitution T105E (protein)
# chain: B4 chain with R63K, T105E
# B6: P193E: Medaka EP-1 protease mutant, substitution P193E (protein)
# chain: B4 chain with R63K, P193E
# B7: F144A: Medaka EP-1 protease mutant, substitution F144A (protein)
# chain: B4 chain with R63K, F144A
# B8: F144S: Medaka EP-1 protease mutant, substitution F144S (protein)
# chain: B4 chain with R63K, F144S
# B9: E173K: Medaka EP-1 protease mutant, substitution E173K (protein)
# chain: B4 chain with R63K, E173K
# Test system: GD4K-βNA
# Assay: EP activity and kinetic study with specific substrate GD4K-βNA
# Format: biochemical
# Conditions: serine protease domain; FIG. 8B
# Protocol: (A) Active recombinant EP proteases were assayed using a GD4K-βNA (SEQ ID NO: 6) substrate as a substrate. Bovine (Nvg), bovine EP protease available from Novagen; Bovine (Neb), bovine EP protease available from NEB. (B) Active recombinant EP proteases were assayed using various synthetic peptide substrates. (C) Active EP proteases were analyzed by gelatin zymography. (D) Fibronectin (4 μg) was incubated with active EPs (100 ng) at 37° C. for 12 h. (E) Laminin ((10 μg) was incubated with active recombinant EPs (100 ng) at 37° C. for 12 h. (F) Two μg of the control protein containing the D4K site (SEQ ID NO: 1) was incubated with active recombinant EPs (100 ng) at 37° C. for 1 h.
# (A) The purity of purified recombinant Medaka EP-1 and EP-2 protease was assessed by SDS-PAGE. Lane 1, Medaka EP fusion protein; lane 2, Medaka EP protease treated with immobilized trypsin; lane 3, Medaka EP protease purified using a resource Q column. (B) The enzyme activities of EP proteases were determined at various pHs using GD4K-βNA (SEQ ID NO: 6) as a substrate. (C) Recombinant Medaka trypsinogen was incubated at 37° C. with EPs for 15, 30 and 45 min. After incubation, samples were analyzed by SDS-PAGE and visualized by CBB staining (upper panel). The relative amount of the active form of Medaka trypsin at each time point were calculated based on the results shown in the upper panel (lower panel). The results are presented as the means (±SD) of three separate experiments.
# (§1) EP activity was routinely determined using the specific substrate Gly-Asp-Asp-Asp-Asp-Lys-β-naphthylamide (GD4K-βNA) (SEQ ID NO: 6) (Sigma) according to the method of Mikhailova and Rumsh (Mikhailova et al., FEBS Lett., 442:226-230 (1999)). Enzyme activity for various 4-methylcoumaryl-7-amide (MCA)-containing peptide substrates was determined by the method of Barrett (Barrett et al., J., Biochem. J., 187:909-912 (1980)). For kinetic studies, initial velocities, extrapolated from the plot of product versus time, were transformed into double-reciprocal plots (Lineweaver et al., J. Am. Chem. Soc., 56:658-663 (1934)). The maximum velocities (Vmax) and Km and kcat values were obtained from the intercepts of these plots. For all experiments, the results of at least three separate determinations are shown.
row,Molecule,pH of maximal activity for GD4K-βNA
1,B1,8

# Same assay, conditions: substrate GD4K-βna
Molecule,Km,kcat
B2,500 µM,25 s⁻¹
B3,800 µM,12.8 s⁻¹
B4,200 µM,3.5 s⁻¹
B5,400 µM,4.33 s⁻¹
B6,400 µM,4.83 s⁻¹

# Test system: GD4K-βNA and the three MCA-containing substrates
# Assay: Specific activities of wild-type and mutant EP protease using synthetic peptide substrates (FIG. 3A)
# Format: biochemical
# Conditions: not given
# Protocol: (A) The specific activities of wild-type (EP-1) and mutant EP protease were determined using synthetic peptide substrates. (B) High-molecular-weight (HMW) kininogen (5 μg) was incubated with active EP proteases (100 ng) at 37° C. for 2 h and analyzed by SDS-PAGE. (C) Fibrinogen (10 μg) was incubated with active EP proteases (100 ng) at 37° C. for 12 h and analyzed by SDS-PAGE.
# as §1
row,Molecule,enzyme activity for synthetic peptide substrates compared with the wild-type enzyme
1,B4,reduced enzyme activity for synthetic peptide substrates
2,B5,reduced enzyme activity for synthetic peptide substrates
3,B7,at an elevated rate when compared with the wild-type enzyme
4,B8,reduced enzyme activity for synthetic peptide substrates
5,B6,reduced enzyme activity for synthetic peptide substrates
6,B9,reduced enzyme activity for synthetic peptide substrates

# Test system: Pro-Phe-Arg-MCA
# Assay: Activity assay of EP proteases and EP-treated hK8 samples with Pro-Phe-Arg-MCA (FIG. 4B middle)
# Format: biochemical
# Conditions: not given
# Protocol: (A) A recombinant fusion protein of Medaka gelatinase A (5 μg) was separately incubated with active EP proteases (100 ng) at 37° C. for 1 h, and analyzed by SDS-PAGE. (B) A recombinant fusion protein of human kallikrein 8 (hK8) (5 μg) was incubated with active EP proteases (100 ng) at 37° C. for 2 h. After incubation, the samples were analyzed by SDS-PAGE (upper panel), or assayed for activity with Pro-Phe-Arg-MCA (middle panel), or Boc-Glu(OBzl)-Ala-Arg-MCA (lower panel). […] The samples were then analyzed by SDS-PAGE/Western blotting using anti-human tPA antibody (upper panel) or anti-His probe antibody (lower panel). The position of sctPA (58- and 61-kDa) detected with the antibodies is shown.
# as §1
# Next, a 35.5-kDa protein of human kallikrein 8 (hK8) in the same E. coli expression system was synthesized. Digestion with Medaka wild-type and mutant EP proteases generated 31.5-kDa active hK8 by cleaving the D4K sequence (SEQ ID NO: 1) (FIG. 4B, Top). […] The EP protease-treated samples were directly assayed for hK8 activity using Pro-Phe-Arg-MCA, a good synthetic peptide substrate of hK8 (Rajapakse et al., FEBS Lett., 579:6879-6884 (2005)). […] The substrate Boc-Glu(OBzl)-Ala-Arg-MCA, which is slightly cleaved by active hK8, was rapidly hydrolyzed with the samples treated with mammalian, but not Medaka, EP proteases (FIG. 4B, Bottom).
Molecule,enzyme activity of the EP protease itself with Pro-Phe-Arg-MCA,Pro-Phe-Arg-MCA-hydrolyzing activity of hK8 fusion protein samples treated with EP protease
B2,considerable enzyme activities were detected,
B3,,very low activity
B4,"none of the Medaka EP proteases (wild-type EP-1, K63R, E173A, or E193A) showed any significant enzyme activity",
B6,"none of the Medaka EP proteases (wild-type EP-1, K63R, E173A, or E193A) showed any significant enzyme activity",

# Test system: recombinant Medaka trypsinogen
# Assay: Activation of recombinant Medaka trypsinogen, SDS-PAGE
# Format: biochemical
# Conditions: 37° C., 15, 30 and 45 min
row,Molecule,conversion of recombinant Medaka trypsinogen to active trypsin
1,B4,converted to trypsin as fast as the wild type enzyme
